Measurements from US20250277030A1, “ANTI-NAPI2B ANTIBODIES AND METHODS OF USE” (Zymeworks BC Inc., priority 2022, published 2025).

What was measured:
[1] = molecular target: T1, NaPi2b expressed on IGROV-1 cells (Homo sapiens, UniProt O95436); assay: Cellular binding of antibody and ADCs to IGROV-1 cells by flow cytometry (Example 14)
T1 construct: IGROV-1 cells express endogenous NaPi2b at a high level; endogenous in cells; host or cells: IGROV-1
T1 sequence (O95436 1-690): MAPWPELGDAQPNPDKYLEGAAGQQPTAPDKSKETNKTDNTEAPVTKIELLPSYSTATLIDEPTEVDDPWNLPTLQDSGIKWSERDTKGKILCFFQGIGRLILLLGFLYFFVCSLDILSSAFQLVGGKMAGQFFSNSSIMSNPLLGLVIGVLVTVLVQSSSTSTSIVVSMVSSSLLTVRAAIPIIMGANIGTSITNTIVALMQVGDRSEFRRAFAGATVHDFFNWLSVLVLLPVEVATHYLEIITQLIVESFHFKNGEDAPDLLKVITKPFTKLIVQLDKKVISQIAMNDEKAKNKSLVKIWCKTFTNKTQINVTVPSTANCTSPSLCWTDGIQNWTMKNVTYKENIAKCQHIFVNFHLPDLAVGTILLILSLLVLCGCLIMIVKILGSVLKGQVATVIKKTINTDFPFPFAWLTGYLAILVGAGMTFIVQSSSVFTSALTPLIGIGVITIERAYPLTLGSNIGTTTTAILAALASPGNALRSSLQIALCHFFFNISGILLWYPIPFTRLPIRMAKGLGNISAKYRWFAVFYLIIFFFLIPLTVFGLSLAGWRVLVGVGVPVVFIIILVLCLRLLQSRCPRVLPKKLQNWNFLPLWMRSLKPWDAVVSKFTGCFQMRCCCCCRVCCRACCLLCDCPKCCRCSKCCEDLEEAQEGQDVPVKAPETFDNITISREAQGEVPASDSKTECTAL
Description: Briefly, HEK293-6e cells were transfected for ˜24 hours to transiently express human NaPi2b, cynomolgus or mouse NaPi2b, at 1 μg of DNA per 1 million cells. Following transfection, 50,000 cells per well were seeded in V-bottom 96-well plates and incubated with 200 nM of primary antibody for 18-24 hours at 4° C. to prevent internalization. Post-incubation, cells were washed and stained with anti-Human IgG Fc AF647 conjugate (Jackson Immuno Research Labs, West Grove, PA, Cat. No. 109-605-098, Lot. No. 124868) at 4° C. for 1 hour. Following staining and washing, fluorescence was detected by flow cytometry on BD LSRFortessa™ Cell Analyzer (BD Biosciences, Franklin Lake, NJ) with 10,000 minimum events collected per well. The AF647/APC-A GeoMean (fluorescence signal geometric mean, proportional to anti-Human AF647 binding) was calculated for the live singlet cell population for each primary antibody using FlowJo™ v8 software (BD Biosciences, Franklin Lake, NJ). The Bmax and Kd of each primary antibody were calculated using GraphPad Prism Version 9 (GraphPad Software, San Diego, CA)
The ability of ADCs to bind to cells expressing NaPi2b was assessed. ADCs of a representative humanized variant antibody, v29456 (H1L2), were prepared by conjugation to DL2 and DL1 as described in Example 11. Binding to endogenous high NaPi2b-expressing cell lines IGROV-1 and HCC-78 was assessed by flow cytometry according to methods described in Example 5.

[2] = Thermal stability by differential scanning calorimetry (DSC); format: physicochemical; conditions: 0.4 mg/mL in PBS, scan 20° C. to 100° C. at 60° C./hr
How it was run: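 Humanized antibody variants at about 0.4 mg/mL in PBS scanned by capillary DSC from 20 °C to 100 °C at 60 °C/hr, buffer-referenced. Melting temperature (Tm) taken from the thermograms as the stability measure.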

[3] = NS-ELISA non-specific binding, heparin; conditions: mAb at 100 nM
Description: The isoelectric point was measured by capillary isoelectric focusing (cIEF), the propensity for self-aggregation was measured by Affinity-capture self-interaction nanoparticle spectroscopy (AC-SINS) and non-specific binding was measured by NS-ELISA, as described below.
NS-ELISA was used to measure the propensity of the antibodies to bind to a range of biomolecules to emulate the undesirable non-specific interactions to biological matrices in vivo as described below.
NS-ELISA was carried out in Corning®96-well EIA/RIA Easy Wash™ Clear Flat Bottom Polystyrene High Bind Microplate coated overnight at 4° C. with 50 μL of Heparin (Sigma, H3149) diluted with 50 mM sodium carbonate pH 9.6 to a final concentration of 250 μg/mL. The plate was incubated for 2 days at room temperature, wells that were coated with heparin were not covered to allow air dry. […] Reactions were stopped after approximately 10 minutes by adding 100 μL of 1 M HCl to each well, and absorbance was read at 450 nm. Binding scores were calculated as the ratio of the ELISA signal of the antibody (antibody-treated) to the signal of a well containing buffer instead of the primary antibody (untreated). The cutoffs considered for each binding molecule (ssDNA, KLH, insulin, dsDNA and heparin) were internally calculated, based on the average of Zymeworks Inc. produced antibodies and antibodies benchmarks published in the literature.

Bmax (MFI) [1]: 78,059 MFI | Curve Hill Slope (h) [1]: 1.7 | Kd ([1]; apparent Kd): 0.65 nM | NS-ELISA binding score (ratio of signal between antibody-treated and untreated), Heparin [3]: 1.06
B1: v29456: humanized anti-NaPi2b IgG1/kappa antibody H1L2; VH SEQ ID NO:24, VL SEQ ID NO:29 (antibody, V domains shown)
VH: QVQLVQSGAEVKKPGASVKVSCKASGFTFTSYNVHWVRQAPGQGLEWMGAISPGNGDLSYAQKFQGRVTMTRDTSTSTVYMELSSLRSEDTAVYYCARGRTGMGAVDYWGQGTLVTVSS
VL: DVQMTQSPSSLSASVGDRVTITCRASQDVYSYLNWYQQKPGKAVKLLIYYTSRLQSGVPSRFSGSGSGTDYTLTISSLQPEDFATYYCQQYNIFPWTFGQGTKLEIK
modifications: v29452, v29456, v29460 VH (H1); v29453, v29454, v29455, v29456 VL (L2)
Fab Tm [2]: 77.9 °C
